Literature values, collected in publication PMC10162908.

Target: EED (Homo sapiens) (UniProt O75530)
UniProt O75530, sequence (O75530 2-441): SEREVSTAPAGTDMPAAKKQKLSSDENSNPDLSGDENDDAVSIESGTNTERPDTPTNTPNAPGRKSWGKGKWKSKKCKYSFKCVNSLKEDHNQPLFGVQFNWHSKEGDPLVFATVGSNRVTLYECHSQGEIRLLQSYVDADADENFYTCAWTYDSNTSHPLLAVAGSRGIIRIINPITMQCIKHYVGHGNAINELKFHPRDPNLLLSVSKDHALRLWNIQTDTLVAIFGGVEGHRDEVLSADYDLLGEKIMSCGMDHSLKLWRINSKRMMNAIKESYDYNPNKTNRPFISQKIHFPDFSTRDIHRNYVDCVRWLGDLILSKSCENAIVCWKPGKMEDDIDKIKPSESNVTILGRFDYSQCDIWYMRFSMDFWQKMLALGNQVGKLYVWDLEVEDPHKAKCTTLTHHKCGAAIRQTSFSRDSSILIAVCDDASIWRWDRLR

Kd: 8.82 µM
Substance: Jarid2 K116me3 peptide 114-118 (from UniProt Q92833)
